Non-standard residues stand in square brackets, D forms with d. Primed or numbered codes have the meaning given here. No end group written: not given here. Haic′ = not defined here; Acdn = not defined here
T1: vascular endothelial (VE) cadherin (human, UniProt P33151 48-784)
T1 sequence (looked up): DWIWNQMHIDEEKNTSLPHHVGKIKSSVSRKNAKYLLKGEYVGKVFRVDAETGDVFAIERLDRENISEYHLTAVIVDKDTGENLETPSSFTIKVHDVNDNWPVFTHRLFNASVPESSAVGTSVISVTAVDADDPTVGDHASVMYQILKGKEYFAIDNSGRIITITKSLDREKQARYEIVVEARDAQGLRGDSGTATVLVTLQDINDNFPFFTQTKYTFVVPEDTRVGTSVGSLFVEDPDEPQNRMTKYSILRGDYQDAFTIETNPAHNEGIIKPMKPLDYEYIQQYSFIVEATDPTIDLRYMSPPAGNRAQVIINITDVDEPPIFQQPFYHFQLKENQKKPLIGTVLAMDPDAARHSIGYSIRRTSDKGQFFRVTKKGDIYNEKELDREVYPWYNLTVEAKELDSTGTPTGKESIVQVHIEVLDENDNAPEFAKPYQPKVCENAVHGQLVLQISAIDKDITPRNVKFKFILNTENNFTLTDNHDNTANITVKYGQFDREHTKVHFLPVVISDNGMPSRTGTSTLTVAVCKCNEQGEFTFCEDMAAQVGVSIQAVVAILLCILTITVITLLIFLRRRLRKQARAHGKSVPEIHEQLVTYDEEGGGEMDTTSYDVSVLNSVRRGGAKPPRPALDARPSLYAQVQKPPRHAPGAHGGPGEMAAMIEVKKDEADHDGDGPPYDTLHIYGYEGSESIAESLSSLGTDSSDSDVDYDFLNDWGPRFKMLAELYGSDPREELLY

B1: Gly-His-Arg-Pro-Leu-Asp-Lys-Acdn-Ile-Ser-Gly-Gly-Gly-Tyr-Arg (peptide)
peptide: GHRPLDK[Acdn]ISGGGYR-NH2
modifications: reading uncertain; also: printed as Gly-His-Arg-Pro-Leu-Asp-Lys-Acdn-Ile-Ser-Gly-Gly-Gly-Tyr-Arg-NH2
B2: Gly-His-Arg-Pro-Leu-Asp-Lys-(1S,2R)Achc-Ile-Ser-Gly-Gly-Gly-Tyr-Arg (peptide)
peptide: GHRPLDK[(1S,2R)Achc]ISGGGYR
modifications: not fully specified; printed as Gly-His-Arg-Pro-Leu-Asp-Lys-(1S,2R)Achc-Ile-Ser-Gly-Gly-Gly-Tyr-Arg

The binders below were run against T1, vascular endothelial (VE) cadherin (assay: cell-based or functional assay).
For GHRPLDK[cis‑4‑Acha]ISGGGYR [Gly-His-Arg-Pro-Leu-Asp-Lys-(cis-4-Acha)-Ile-Ser-Gly-Gly-Gly-Tyr-Arg], the “Relative RhoA stimulation compared to unstimulated control” value (shortened to “Relative RhoA stimulation”) was 1 fold of unstimulated control. In the case of B1, the “Relative RhoA stimulation” value is reported as 1.3 fold of unstimulated control. In the case of GHRPLDK[Haic′]ISGGGYR [Gly-His-Arg-Pro-Leu-Asp-Lys-Haic-Ile-Ser-Gly-Gly-Gly-Tyr-Arg], the “Relative RhoA stimulation” value is reported as 1.3 fold of unstimulated control. In the case of B2, the “Relative RhoA stimulation” value is reported as 1.5 fold of unstimulated control.

Reference: patent US20090286739A1 (FIBREX MEDICAL RESEARCH AND DEVELOPMENT, published 2009)
